According to article PMC12714728 (npj Viruses, 2025):

What was measured:
cyclic peptide CP10 = assay: SPR; conditions: both partners purified
cyclic peptide CP9 = assay: SPR; conditions: both partners purified

B1: hemagglutinin (HA) ectodomain of A/New Caledonia/20/1999 (H1N1) (domain or fragment)
chain: not shown
modifications: biotin on the BirA site
Question: With B1 as the binder, how does the koff (cyclic peptide CP10) read?
Answer: The koff was 0.378 s⁻¹.

Question: What about the kon (cyclic peptide CP10) of the same binder?
Answer: Its kon is 50300 M⁻¹ s⁻¹.

Question: And the koff (cyclic peptide CP9)?
Answer: The koff was 0.351 s⁻¹.

Question: And the kon (cyclic peptide CP9)?
Answer: Its kon is 108000 M⁻¹ s⁻¹.
